Reference: patent US20200040088A1 (Kyowa Kirin, published 2020)

Legend:
[1] = target: T1, Mouse IL-5Rα-Fc (R&D Systems Inc.) (mouse, UniProt P21183 18-339); assay: SPR, Biacore T200; mouse IL-5Rα-Fc captured on anti-human IgG (Fc); cm1B12 as analyte; bivalent analyte model
T1 construct: Bought reagent; not shown: Fc part
T1 sequence (looked up): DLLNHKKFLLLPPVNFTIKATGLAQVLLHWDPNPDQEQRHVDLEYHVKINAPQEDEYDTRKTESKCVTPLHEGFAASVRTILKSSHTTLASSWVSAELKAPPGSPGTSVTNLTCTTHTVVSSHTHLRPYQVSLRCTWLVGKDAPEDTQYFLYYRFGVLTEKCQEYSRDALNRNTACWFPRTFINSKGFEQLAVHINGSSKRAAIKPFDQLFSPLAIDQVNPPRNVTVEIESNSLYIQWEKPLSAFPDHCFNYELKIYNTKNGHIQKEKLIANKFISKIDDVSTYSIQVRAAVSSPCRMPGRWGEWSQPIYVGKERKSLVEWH
Experimental: The binding activity of the cm1B12 antibody to mouse IL-5Rα-Fc was analyzed using Biacore T200. Anti-Human IgG (Fc) was immobilized at about 9000 RU onto CM5 sensor chip (GE Healthcare) using Human Antibody Capture Kit (GE Healthcare) according to the attached instruction. Mouse IL-5Rα-Fc (R&D Systems Inc.) dissolved at 1 μg/mL in HBS-EP(+) was captured as a ligand at a flow rate of 30 μL/min for 20 seconds. Then, the cm1B12 antibody serially diluted into concentrations of 1000.00, 333.33, 111.11, 37.04, 12.35, and 4.12 ng/mL was added thereto as an analyte by the multicycle method.
The operation was performed under conditions involving a flow rate of 30 μL/min, and a contact time and a dissociation time of 120 seconds and 600 seconds, respectively. The analysis was carried out using Biacore T200 Evaluation software in the Surface bound and Bivalent Analyte mode.

[2] = target: T2, mouse IL-5Rα expressed on cells (Ba/F3 cells stably expressing mouse IL-5Rα); Expi293F cells transiently … (mouse, UniProt P21183 18-415); assay: flow cytometry on mouse IL-5Rα-expressing Ba/F3 cells, detected with Alexa Fluor 647 goat anti-mouse IgG (H+L), geometric mean fluorescence; parental Ba/F3 cells as negative control
T2 construct: whole, on cells; also called IL-5Rα-expressing Ba/F3 cells; IL5Ra-expressing Ba/F3 cells
T2 sequence (looked up): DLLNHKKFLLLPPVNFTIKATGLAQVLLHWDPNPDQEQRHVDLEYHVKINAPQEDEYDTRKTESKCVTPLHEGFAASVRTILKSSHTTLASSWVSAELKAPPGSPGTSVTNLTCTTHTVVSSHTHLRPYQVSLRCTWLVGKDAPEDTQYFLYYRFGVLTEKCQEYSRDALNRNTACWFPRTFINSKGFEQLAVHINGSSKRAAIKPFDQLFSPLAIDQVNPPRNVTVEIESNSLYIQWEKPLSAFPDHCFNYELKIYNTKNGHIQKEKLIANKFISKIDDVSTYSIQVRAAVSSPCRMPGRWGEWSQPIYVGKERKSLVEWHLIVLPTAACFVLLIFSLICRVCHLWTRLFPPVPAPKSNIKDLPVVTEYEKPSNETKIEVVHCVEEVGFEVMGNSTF
Experimental: Ba/F3 cells or IL-5Rα-expressing Ba/F3 cells were suspended at a cell density of 1×10⁶ cells/mL in FACS buffer 1. The cell suspension was inoculated at 100 μL/well ([…]) to a 96-well U-form plate. The cm1B12 antibody was diluted into final concentrations of 0.0003, 0.001, 0.003, 0.01, 0.03, 0.1, 0.3, 1, 3, and 10 μg/mL with FACS buffer 1, added at 100 μL/well, and reacted for 1 hour on ice. After washing with FACS buffer 1, Alexa Fluor® 647 Goat anti-mouse IgG (H+L) (Life Technologies Corp.) diluted into 5 μg/mL with FACS buffer 1 was added at 100 μL/well and reacted for 1 hour on ice. After washing with FACS buffer 1, the fluorescence intensity (geometric mean) was measured using a flow cytometer Canto II (Becton, Dickinson and Company).

Kd [1]: 0.0317 nM
koff [1]: 0.000126 s⁻¹
kon [1]: 4.1e+06 M⁻¹ s⁻¹
EC50 (read off the curve) [2]: ~0.05 µg/mL
B1: rat/mouse chimera type 1B12 antibody (antibody, V domains shown)
VH: VQLVESDGGLVQPGRSLKLSCAASGFTFSDFYMAWVRQAPTKGLEWVATISYDGSSAYYRDSVKGRFTISRDNAKSTLYLQMDSLSSEDTATYYCARHDGYYPFDYWGQGVMVTVSS
VL: DIRMTQSPASLSASLGETVNIECLASEDIYSDLAWYQQKPGKSPQLLIYDANSLQNGVPSRFSGSGSGTQYSLKINSLQSEDVATYFCQQYNNYWTFGGGTKLELK
notes: also called cm1B12 antibody; cm1B12
